{
  "source": "patent US20230064326A1",
  "about": "“OPTOGENETIC COMPOSITIONS COMPRISING A CBh PROMOTER SEQUENCE AND METHODS FOR USE” (Vedere Bio II, Inc., priority 2021, published 2023)",
  "tested_on": "NHP retinas",
  "assay": "SNAP immunostaining to visualize SNAP-mGluR2 expression in NHP retinas",
  "format": "in vivo, Cynomolgus macaques and African Green monkeys",
  "conditions": "non-human primates; central and peripheral retina",
  "data": [
    {"molecule": "CBh promoter: promoter of SEQ ID NO: 1: CMV enhancer, chicken beta actin promoter and hybrid intron; in b245 driving SNAP-mGluR2 (nucleic acid, misc_feature 1..812 CBH promoter sequence, in b245 driving SNAP-mGluR2) DNA: CGTTACATAACTTACGGTAAATGGCCCGCCTGGCTGACCGCCCAACGACCCCCGCCCATTGACGTCAATAATGACGTATGTTCCCATAGTAACGCCAATAGGGACTTTCCATTGACGTCAATGGGTGGAGTATTTACGGTAAACTGCCCACTTGGCAGTACATCAAGTGTATCATATGCCAAGTACGCCCCCTATTGACGTCAATGACGGTAAATGGCCCGCCTGGCATTATGCCCAGTACATGACCTTATGGGACTTTCCTACTTGGCAGTACATCTACGTATTAGTCATCGCTATTACCATGGTCGAGGTGAGCCCCACGTTCTGCTTCACTCTCCCCATCTCCCCCCCCTCCCCACCCCCAATTTTGTATTTATTTATTTTTTAATTATTTTGTGCAGCGATGGGGGCGGGGGGGGGGGGGGGGCGCGCGCCAGGCGGGGCGGGGCGGGGCGAGGGGCGGGGCGGGGCGAGGCGGAGAGGTGCGGCGGCAGCCAATCAGAGCGGCGCGCTCCGAAAGTTTCCTTTTATGGCGAGGCGGCGGCGGCGGCGGCCCTATAAAAAGCGAAGCGCGCGGCGGGCGGGAGTCGCTGCGACGCTGCCTTCGCCCCGTGCCCCGCTCCGCCGCCGCCTCGCGCCGCCCGCCCCGGCTCTGACTGACCGCGTTACTCCCACAGGTGAGCGGGCGGGACGGCCCTTCTCCTCCGGGCTGTAATTAGCTGAGCAAGAGGTAAGGGTTTAAGGGATGGTTGGTTGGTGGGGTATTAATGTTTAATTACCTGGAGCACCTGCCTGAAATCACTTTTTTTCAG", "values": [
      {"measurement": "expression of a SNAP-mGluR2 transgene, promoter comparison (CBh vs synapsin)", "result": "much more robust expression"}
    ]}
  ]
}
